Data on 4 molecules can be found in article PMC4227695, “Combining Anti-ERBB3 Antibodies Specific for Domain I and Domain III Enhances the Anti-Tumor Activity over the Individual Monoclonal Antibodies” (PLoS ONE, 2014).

Assay [1] concerns the target T1, intact ERBB3 extracellular domain (dI-IV, aa20-639) (Homo sapiens, UniProt P21860).
T1 construct: ERBB3/HER3 extracellular domain, domains I-IV, aa20-639; also called ERBB3 ECD; intact ERBB3 ECD; source: purified from culture supernatant by IMAC (HisTrap)
Put plainly: ELISA; apparent; ERBB3 extracellular domain immobilised; 4-fold serial dilutions of IgG (1333-0.02 nM); detected with HRP-conjugated anti-human Fc. A general note: In an ELISA, binding on a coated surface is turned into a signal by an enzyme label.

Assay [2] addresses T2, ERBB3 on BT-474 cells (Homo sapiens, UniProt P21860).
T2 construct: ERBB3/HER3 receptor on the surface of BT-474 breast cancer cells; Also used for the functional rows, where the cells were BT-474, NCI-N87 and ACHN; also called HER3; source: endogenous, BT-474 cells
Put plainly: flow cytometry on cells; 0, 0.5, 2, 5 ug IgG with BT-474 cells (250,000 cells/assay); detected with FITC-conjugated anti-human Fc. The following applies: one partner purified.

Assay [3] deals with T3, ERBB3 extracellular domain I (dI, aa20-207) (Homo sapiens, UniProt P21860).
T3 construct: ERBB3/HER3 domain I, aa20-207; Sub-cloned into pSEC-Tag2/HygroA (vector-supplied secretion signal; the vector may add further tag residues); source: HEK293, stably expressed, purified from culture supernatant (IMAC, HisTrap)
T3 sequence (P21860 20-207): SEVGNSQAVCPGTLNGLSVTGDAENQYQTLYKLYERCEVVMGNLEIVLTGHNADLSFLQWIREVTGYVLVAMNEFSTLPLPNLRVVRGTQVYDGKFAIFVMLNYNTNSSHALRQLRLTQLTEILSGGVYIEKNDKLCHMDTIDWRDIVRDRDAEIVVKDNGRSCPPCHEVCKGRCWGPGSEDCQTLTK
Briefly: native gel or EMSA; IgG (30-40 ug) with dI at 1.5x and 3x molar ratios of IgG:dI, 4 uL reaction, 30 min at room temperature; 12.5% native acrylamide gel (PhastGel), stained; loss of free dI read. The following applies: both partners purified. A general note: A gel shift assay detects complexes by their altered migration in electrophoresis.

In assay [4] the target is T4, ERBB3 extracellular domain III (dIII, aa311-477) (Homo sapiens, UniProt P21860).
T4 construct: ERBB3/HER3 domain III, aa311-477; Subcloned into pMTBiPV5HISa (vector-supplied secretion signal; the vector may add further tag residues); source: S2 cells, stably expressed, purified from culture supernatant (IMAC, HisTrap)
T4 sequence (P21860 311-477): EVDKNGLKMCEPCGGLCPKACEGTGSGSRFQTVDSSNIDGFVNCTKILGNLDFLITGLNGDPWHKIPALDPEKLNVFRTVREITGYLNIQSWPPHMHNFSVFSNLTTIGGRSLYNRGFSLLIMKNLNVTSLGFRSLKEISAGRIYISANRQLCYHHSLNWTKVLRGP
Briefly: pull-down; called immunoprecipitation: scFv coupled to AminoLink agarose (about 80 ug scFv, 20-50 fold excess) incubated 1 h at room temperature with 5 ug ERBB3 ECD fragment in 40 uL; washed 3x with PBS; supernatant and pellet fractions on SDS-PAGE. Conditions: both partners purified.

For assay [5], the target named is T5, ERBB3 extracellular domains III-IV (dIII-IV, aa310-616) (Homo sapiens, UniProt P21860).
T5 construct: ERBB3/HER3 domains III-IV, aa310-616; source: purified from culture supernatant by IMAC (HisTrap)
T5 sequence (P21860 310-616): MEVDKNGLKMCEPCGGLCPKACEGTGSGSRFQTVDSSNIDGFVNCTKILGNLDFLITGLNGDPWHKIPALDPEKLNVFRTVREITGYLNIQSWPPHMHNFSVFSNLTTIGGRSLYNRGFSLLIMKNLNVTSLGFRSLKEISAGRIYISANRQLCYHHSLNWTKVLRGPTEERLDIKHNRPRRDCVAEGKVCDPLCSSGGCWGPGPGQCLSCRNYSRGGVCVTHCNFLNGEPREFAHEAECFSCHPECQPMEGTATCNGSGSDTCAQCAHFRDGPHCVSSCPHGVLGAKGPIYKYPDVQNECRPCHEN
The assay is described as above. Conditions: both partners purified.

Assay [6] has as its target T1, intact ERBB3 extracellular domain …. The description is as above. The following applies: both partners purified.
Assay [7] concerns the target T6, ERBB3 extracellular domains I-II (dI-II, aa20-329) (Homo sapiens, UniProt P21860).
T6 construct: ERBB3/HER3 domains I-II, aa20-329; Sub-cloned into pSEC-Tag2/HygroA (vector-supplied secretion signal; the vector may add further tag residues); source: HEK293, stably expressed, purified from culture supernatant (IMAC, HisTrap)
Described as above. Conditions: both partners purified.

In assay [8] the target is T3, ERBB3 extracellular domain I (dI, …). The description is as above. Conditions: both partners purified.

T1 sequence (P21860 20-639): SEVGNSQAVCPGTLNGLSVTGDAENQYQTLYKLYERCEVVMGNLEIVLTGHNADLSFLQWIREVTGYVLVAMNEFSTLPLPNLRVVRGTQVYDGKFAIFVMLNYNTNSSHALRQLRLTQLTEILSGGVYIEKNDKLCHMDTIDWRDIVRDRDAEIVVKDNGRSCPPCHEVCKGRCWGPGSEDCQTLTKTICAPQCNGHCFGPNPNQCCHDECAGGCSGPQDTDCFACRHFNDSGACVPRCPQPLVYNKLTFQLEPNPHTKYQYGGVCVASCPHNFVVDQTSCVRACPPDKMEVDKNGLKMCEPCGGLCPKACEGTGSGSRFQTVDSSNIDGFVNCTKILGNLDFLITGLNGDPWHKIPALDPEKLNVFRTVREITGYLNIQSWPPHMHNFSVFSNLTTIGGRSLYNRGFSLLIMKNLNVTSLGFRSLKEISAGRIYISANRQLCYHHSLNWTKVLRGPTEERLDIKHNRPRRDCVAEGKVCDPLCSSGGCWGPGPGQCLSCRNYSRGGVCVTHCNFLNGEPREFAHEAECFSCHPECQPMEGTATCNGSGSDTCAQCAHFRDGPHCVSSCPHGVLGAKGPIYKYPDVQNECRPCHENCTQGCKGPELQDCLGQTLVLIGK
T2 sequence (P21860 20-1342): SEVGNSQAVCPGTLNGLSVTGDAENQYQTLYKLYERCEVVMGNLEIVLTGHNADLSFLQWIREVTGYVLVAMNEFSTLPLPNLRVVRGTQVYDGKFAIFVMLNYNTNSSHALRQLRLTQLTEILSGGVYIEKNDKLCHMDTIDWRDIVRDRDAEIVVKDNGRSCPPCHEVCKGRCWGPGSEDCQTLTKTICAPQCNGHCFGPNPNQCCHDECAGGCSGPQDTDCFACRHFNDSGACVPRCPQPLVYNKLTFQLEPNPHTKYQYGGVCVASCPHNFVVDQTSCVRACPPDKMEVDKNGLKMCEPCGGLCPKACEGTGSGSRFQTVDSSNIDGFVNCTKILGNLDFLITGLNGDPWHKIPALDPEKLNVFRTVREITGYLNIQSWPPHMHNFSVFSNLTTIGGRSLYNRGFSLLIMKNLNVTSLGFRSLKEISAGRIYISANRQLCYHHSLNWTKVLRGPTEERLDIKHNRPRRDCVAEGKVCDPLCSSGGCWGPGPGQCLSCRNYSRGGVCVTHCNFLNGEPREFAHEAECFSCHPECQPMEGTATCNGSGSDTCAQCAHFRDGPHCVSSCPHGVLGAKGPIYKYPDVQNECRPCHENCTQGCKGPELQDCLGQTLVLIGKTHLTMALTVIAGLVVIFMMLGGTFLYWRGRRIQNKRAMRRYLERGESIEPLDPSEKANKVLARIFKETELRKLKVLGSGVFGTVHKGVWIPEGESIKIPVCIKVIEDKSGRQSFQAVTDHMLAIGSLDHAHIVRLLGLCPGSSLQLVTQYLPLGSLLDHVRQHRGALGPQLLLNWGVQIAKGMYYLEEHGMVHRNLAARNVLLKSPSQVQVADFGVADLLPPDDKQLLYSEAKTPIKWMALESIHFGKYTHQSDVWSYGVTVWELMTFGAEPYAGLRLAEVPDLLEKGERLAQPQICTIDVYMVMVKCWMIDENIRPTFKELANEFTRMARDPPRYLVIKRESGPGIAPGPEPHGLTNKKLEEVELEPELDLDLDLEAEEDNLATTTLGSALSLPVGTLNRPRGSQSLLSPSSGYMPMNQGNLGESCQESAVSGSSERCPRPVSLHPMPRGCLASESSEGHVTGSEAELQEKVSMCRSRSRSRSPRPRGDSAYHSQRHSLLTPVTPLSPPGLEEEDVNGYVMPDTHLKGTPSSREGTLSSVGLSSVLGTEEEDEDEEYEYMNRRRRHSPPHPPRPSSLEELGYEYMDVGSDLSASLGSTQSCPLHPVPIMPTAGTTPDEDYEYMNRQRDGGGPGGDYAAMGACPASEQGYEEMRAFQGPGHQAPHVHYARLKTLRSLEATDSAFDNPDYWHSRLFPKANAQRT
T6 sequence (P21860 20-329): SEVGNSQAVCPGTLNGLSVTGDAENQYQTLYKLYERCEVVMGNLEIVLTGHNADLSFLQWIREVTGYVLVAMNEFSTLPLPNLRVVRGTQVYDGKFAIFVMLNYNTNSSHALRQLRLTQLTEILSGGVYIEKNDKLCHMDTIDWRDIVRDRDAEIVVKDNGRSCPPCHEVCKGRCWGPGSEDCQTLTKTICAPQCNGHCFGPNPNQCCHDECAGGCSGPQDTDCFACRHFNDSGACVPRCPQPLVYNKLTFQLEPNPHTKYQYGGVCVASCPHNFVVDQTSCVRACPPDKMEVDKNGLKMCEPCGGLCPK

B1: A5 anti-ERBB3 IgG (human IgG1 format) (antibody, V domains shown)
VH: QVQLVQSGGGLVKPGGSLRLSCAASGFSFNTYDMNWVRQAPGKGLEWVSSISSSSSYIYYADSVKGRFTISRDNAKNSLYLQMNSLRAEDTAVYYCARDGVATTPFDYWGQGTLVTVSS
VL: QSVLTQPPSVSGAPGQRVTISCTGSSSNIGAGYDVHWYQQLPGTAPKLLIYGNSNRPSGVPDRFSGSKSGTSASLAITGLQAEDEADYYCQSYDSSLSALFGGGTKLTVL
notes: A5 variable heavy (Vh) domain; human IgG1 heavy chain constant region; A5 variable light (Vl) domain; light chain constant domain; IgG1; also called A5 IgG; source: purified from conditioned media by protein A chromatography; copies: 2 + 2
In the case of B1, in assay [1], the Kd came to 11.1 nM. Moreover, the binding result was “binds” in assay [2]; “no binding (tested: 1.5x and 3x Molar excess of antibody)” in assay [3].

B2: A5 anti-ERBB3 single-chain Fv (scFv, V domains shown)
VH: B1 VH
VL: B1 VL
notes: A5 variable heavy (Vh) domain; linker of the scFv; A5 variable light (Vl) domain; Coupled to AminoLink agarose in the immunoprecipitations; also called A5 scFv
Take B2: the binding result in assay [4], in assay [5] and in assay [6] was “binds” each time.

B3: F4 anti-ERBB3 IgG (human IgG1 format) (antibody, V domains shown)
VH: QVQLQESGGGLVKPGGSLRLSCAASGFTFSSYAMSWVRQAPGKGLEWVSTISGSGGSTYYADSVKGRFTISRDNSKNTLYLQMNSLRAEDTAVYYCAKGYSSSWSEVASGYWGQGTLVTVSS
VL: DIVMTQSPSSLSASVGDRVTITCRASQGIRNDLGWYQQKAGKAPKLLIYAASSLQSGVPSRFSGSGSGTDFTLTISSLQPDDFATYFCQQAHSFPPTFGGGTKVEIK
notes: F4 variable heavy (Vh) domain; human IgG1 heavy chain constant region; F4 variable light (Vl) domain; light chain constant domain; IgG1; also called F4 IgG; source: purified from conditioned media by protein A chromatography; copies: 2 + 2
With B3, the Kd in assay [1] is 4.8 nM. The binding result in assay [2] and in assay [3] was “binds” in each case.

B4: F4 anti-ERBB3 single-chain Fv (scFv, V domains shown)
VH: B3 VH
VL: B3 VL
notes: F4 variable heavy (Vh) domain; linker of the scFv; F4 variable light (Vl) domain; Coupled to AminoLink agarose in the immunoprecipitations; also called F4 scFv
For the molecule B4, the binding result in assay [6], in assay [7] and in assay [8] was “binds” in each case.
